# Molecular target: T1, HLA-A*02:01 (human)
# T1 construct: MHC class I monomer of the UV-ligand exchange assay; also called peptide-receptive MHC molecules; MHC class I
# Assay: UV peptide-exchange ELISA
# Method in brief: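 Peptide-MHC complexes formed by UV-mediated exchange of a UV-cleavable peptide for the test peptide; exchange yield quantified by β2m ELISA. Diluted 100-fold, captured on streptavidin-coated plates 1 h at 37 °C, detected with HRP anti-β2m and TMB at 450 nm against refolded HLA-A*02:01 monomer standards (15-500 ng/ml).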
row,Binder,peptide exchange yield [%]
1,ILEPLNPLL,50 to 75
2,ILIDKTSFV,50 to 75
3,GVMDVNTAL,20 to 50
4,ILFPLRFTL,50 to 75
5,HLMLHTAAL,≥ 75
6,GLPSFLTEV,50 to 75
7,GLLRIIPYL,50 to 75
8,ILVVIEPLL,≥ 75
9,ALAASALPALV,50 to 75
10,GLQAKIQEA,50 to 75
11,ILDFGTFQL,50 to 75
12,VIADLGLIRV,50 to 75
13,WLVGQEFEL,50 to 75
14,HLYPGAVTI,50 to 75
15,LLFATQITL,20 to 50
16,ILDEIGADVQA,50 to 75
17,ILIFHSVAL,50 to 75
18,ILGYMAHEHKV,20 to 50
19,ALCDTLITV,50 to 75
20,GQGEVLVYV,50 to 75
21,ILNNEVFAI,50 to 75
22,ILDLNTYNV,50 to 75
23,SLIKYFLFV,10 to 20
24,HQIEAVDGEEL,20 to 50
25,GLQSGVDIGV,50 to 75
26,ILFNTQINI,50 to 75
27,VLIEDELEEL,20 to 50

# From US20170165337A1 (IMMATICS BIOTECHNOLOGIES, published 2017)
